From patent US20250090676A1 (SUTRO BIOPHARMA, published 2025)
Positions count from the first letter of the chain named.

B1: SRP1848-B05 (antibody, V domains shown)
VH: EVQLVESGGGLVQPGGSLRLSCAASGFNISNYYIHWVRQAPGKGLEWVGGISPIDGYTDYADSMKGRFTISADTSKNTAYLQMSSLRAEDTAVYYCARGSWFWQSGYGYYLDYWGQGTLVTVSS
VL: not shown
notes: IgG with common trastuzumab LC, cell-free expressed, HIS- and FLAG-tagged; also called Antibody 12
B2: SRP1848-B06 (antibody, V domains shown)
VH: B1 VH with S52T, M64V, S84N, S100F, F102S, Q104P, L111Q
VL: not shown
notes: IgG with common trastuzumab LC, cell-free expressed, HIS- and FLAG-tagged; also called Antibody 13
B3: SRP1848-B07 (antibody, V domains shown)
VH: B1 VH with N31R, Y32F, I54Y, Y57F, M64V, S84N, F102S, Q104P, S105A, L111Q
VL: not shown
notes: IgG with common trastuzumab LC, cell-free expressed, HIS- and FLAG-tagged; also called Antibody 14
B4: SRP1848-B09 (antibody, V domains shown)
VH: EVQLVESGGGLVQPGGSLRLSCAAGGFNITNYYIHWVRQAPGKGLEWVGGITPVDGYTDYADRVKGRFTISADTSKNTAYLQMNSLRAEDTAVYYCARGAWSWRSGYGYYMDYWGQGTLVTVSS
VL: not shown
notes: IgG with common trastuzumab LC, cell-free expressed, HIS- and FLAG-tagged; also called Antibody 15
B5: SRP1848-B10 (antibody, V domains shown)
VH: EVQLVESGGGLVQPGGSLRLSCAASGFNTTTKSIHWVRQAPGKGLEWVGEIYPRDGITDYADSVKGRFTISADTSKNTAYLQMNSLRAEDTAVYYCARGGWHWRSGYSYYLDYWGQGTLVTVSS
VL: not shown
notes: IgG with common trastuzumab LC, cell-free expressed, HIS- and FLAG-tagged; also called Antibody 16
B6: SRP1848-B11 (antibody, V domains shown)
VH: B1 VH with S30G, Y32N, Y33S, G50D, Y57F, M64V, S84N, F102S, Q104R, S105A
VL: not shown
notes: IgG with common trastuzumab LC, cell-free expressed, HIS- and FLAG-tagged; also called Antibody 17
B7: SRP1848-C01 (antibody, V domains shown)
VH: EVQLVESGGGLVQPGGSLRLSCAASGFNIGNSYIHWVRQAPGKGLEWVGGVTPNDGYTDYADSVKGRFTISADTSKNTTYLQMNSLRAEDTAVYYCARGSWFWRAGYGYYLDYWGQGALVTVSS
VL: not shown
notes: IgG with common trastuzumab LC, cell-free expressed, HIS- and FLAG-tagged; also called Antibody 18
B8: SRP1848-C03 (antibody, V domains shown)
VH: B5 VH with T29I, T30G, T31V, K32Y, R54I, I57N, G100S, H102A
VL: not shown
notes: IgG with common trastuzumab LC, cell-free expressed, HIS- and FLAG-tagged; also called Antibody 19
B9: SRP1848-C04 (antibody, V domains shown)
VH: EVQLVESGGGLVQPGGSLRLSCAASGFNIRHYSIHWVRQAPGKGLEWVGEIYPGPGNTDYADSVKGRFTISADTSKNTAYLQMNSLRAEDTAVYYCARGSLSWRAGYGYYLDYWGQGTLVTVSS
VL: not shown
notes: IgG with common trastuzumab LC, cell-free expressed, HIS- and FLAG-tagged; also called Antibody 20
B10: SRP1848-C05 (antibody, V domains shown)
VH: B9 VH with H31K, E50D, Y52F, G54I, P55D, N57I, T58N, L101W, R104K
VL: not shown
notes: IgG with common trastuzumab LC, cell-free expressed, HIS- and FLAG-tagged; also called Antibody 21
B11: SRP1848-C07 (antibody, V domains shown)
VH: B9 VH with H31K, E50D, Y52F, G54I, P55D, N57I, V64M, L101W, R104P, L111Q
VL: not shown
notes: IgG with common trastuzumab LC, cell-free expressed, HIS- and FLAG-tagged; also called Antibody 22
B12: SRP1848-C10 (antibody, V domains shown)
VH: B1 VH with S30R, N31T, M64V, S84N, F102S, Q104P, S105A
VL: not shown
notes: IgG with common trastuzumab LC, cell-free expressed, HIS- and FLAG-tagged; also called Antibody 23
B13: SRP1848-D02 (antibody, V domains shown)
VH: B4 VH with G25S, T30S, N31H, Y32N, V54Q, R63S, S85R, S105A, M111L
VL: not shown
notes: IgG with common trastuzumab LC, cell-free expressed, HIS- and FLAG-tagged; also called Antibody 24
B14: SRP1848-D04 (antibody, V domains shown)
VH: B5 VH with T29I, T30S, T31H, K32Y, R87S, G100Y, H102F, S108G
VL: not shown
notes: IgG with common trastuzumab LC, cell-free expressed, HIS- and FLAG-tagged; also called Antibody 26
B15: SRP1848-D05 (antibody, V domains shown)
VH: B1 VH with N31I, Y32S, M64V, S84N, F102S, Q104R, S105A
VL: not shown
notes: IgG with common trastuzumab LC, cell-free expressed, HIS- and FLAG-tagged; also called Antibody 27
B16: SRP1848-D07 (antibody, V domains shown)
VH: B1 VH with N31K, I54N, M64V, T69A, S84N, S100F, F102A, Q104R
VL: not shown
notes: IgG with common trastuzumab LC, cell-free expressed, HIS- and FLAG-tagged; also called Antibody 28
B17: SRP1848-D09 (antibody, V domains shown)
VH: B1 VH with I54N, M64V, S84N, F102S, Q104R, S105H
VL: not shown
notes: IgG with common trastuzumab LC, cell-free expressed, HIS- and FLAG-tagged; also called Antibody 29
B18: SRP1848-D10 (antibody, V domains shown)
VH: EVQLVESGGGLVQPGGSLRLSCAASGFNISRNSIHWVRQAPGKGLEWVGWISPNDGTTDYADSVKGRFTISADGSKNTAYLQMNSLRAEDTAVYYCARGAWSWRSGYGYYIDYWGQGTLVTVSS
VL: not shown
notes: IgG with common trastuzumab LC, cell-free expressed, HIS- and FLAG-tagged; also called Antibody 30

Target: T1, human FOLR1-HIS (human, UniProt P15328 25-233)
T1 construct: Analyte of the Biacore assay; also called FolRα-ECD; extracellular domain of FOLR1; not shown: HIS tag
T1 sequence (P15328 25-233 limits assumed): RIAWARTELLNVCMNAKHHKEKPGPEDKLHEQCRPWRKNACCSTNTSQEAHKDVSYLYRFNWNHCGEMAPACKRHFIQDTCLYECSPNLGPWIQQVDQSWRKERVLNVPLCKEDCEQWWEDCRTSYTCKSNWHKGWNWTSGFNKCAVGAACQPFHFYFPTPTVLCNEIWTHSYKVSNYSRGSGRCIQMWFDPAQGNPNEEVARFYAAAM
Test: SPR (Biacore), antibody captured on anti-Fc, human FOLR1-HIS analyte, 25 C
Method: Anti-Fc polyclonal antibodies were immobilized onto a CM5 chip (GE Life Sciences) using amine coupling chemistry (from Amine Coupling Kit, GE Life Sciences). The immobilization steps were carried out at a flow rate of 25 μL/min in 1×HBS-EP+ buffer (GE Life Sciences; 10× Stock diluted before use). […] Ethanolamine (1 M, pH 8.5) was injected for 7 min to block any remaining activated groups. An average of 12,000 response units (RU) of capture antibody was immobilized on each flow cell.
Off-rate and kinetic binding experiments were performed at 25° C. using 1×HBS-EP+ buffer. […] Between each ligand capture and analyte binding cycle, regeneration was carried out using 2 injections of 10 mM glycine pH 2.0 for 30 seconds at 30 μL/min, followed by a 30 second buffer wash step.
The data were fit with the Biacore T200 Evaluation software, using a 1:1 Langmuir binding model. KD (affinity, nM) was determined as a ratio of the kinetic rate constants calculated from the fits of the association and dissociation phases.

Row | Binder | Kd | koff | kon
1 | B1 | 9.07 nM | 0.00885 s⁻¹ | 976000 M⁻¹ s⁻¹
2 | B2 | 5.1 nM | 0.00317 s⁻¹ | 620000 M⁻¹ s⁻¹
3 | B3 | 5.35 nM | 0.00378 s⁻¹ | 706000 M⁻¹ s⁻¹
4 | B4 | 4.26 nM | 0.00661 s⁻¹ | 1.55e+06 M⁻¹ s⁻¹
5 | B5 | 2.18 nM | – | –
6 | B6 | 1.52 nM | 0.00186 s⁻¹ | 1.22e+06 M⁻¹ s⁻¹
7 | B7 | 3.05 nM | – | –
8 | B8 | 1.11 nM | 0.00152 s⁻¹ | 1.36e+06 M⁻¹ s⁻¹
9 | B9 | 3.86 nM | 0.00499 s⁻¹ | 1.29e+06 M⁻¹ s⁻¹
10 | B10 | 4.29 nM | 0.00454 s⁻¹ | 1.06e+06 M⁻¹ s⁻¹
11 | B11 | 2.21 nM | 0.00189 s⁻¹ | 856000 M⁻¹ s⁻¹
12 | B12 | 4.03 nM | 0.00363 s⁻¹ | 899000 M⁻¹ s⁻¹
13 | B13 | 2.41 nM | 0.00205 s⁻¹ | 851000 M⁻¹ s⁻¹
14 | B14 | 3.48 nM | 0.00173 s⁻¹ | 497000 M⁻¹ s⁻¹
15 | B15 | 2.93 nM | – | –
16 | B16 | 4.7 nM | 0.00511 s⁻¹ | 1.09e+06 M⁻¹ s⁻¹
17 | B17 | 10.1 nM | 0.0108 s⁻¹ | 1.07e+06 M⁻¹ s⁻¹
18 | B18 | 4.95 nM | 0.00558 s⁻¹ | 1.13e+06 M⁻¹ s⁻¹
